We go through two molecules from paper PMC5056641 (The Biochemical journal, 2014).

In assay [1] the target is His-CLK1 (Cdc2-like kinase 1, mouse) (mouse, UniProt P22518 1-483). The assay can be described thus: pull-down.
Assay [2] concerns the target GST-SRSF1 (human, UniProt Q07955 1-248). The assay can be described thus: pull-down.

Sequence of GST-SRSF1 (Q07955 whole entry): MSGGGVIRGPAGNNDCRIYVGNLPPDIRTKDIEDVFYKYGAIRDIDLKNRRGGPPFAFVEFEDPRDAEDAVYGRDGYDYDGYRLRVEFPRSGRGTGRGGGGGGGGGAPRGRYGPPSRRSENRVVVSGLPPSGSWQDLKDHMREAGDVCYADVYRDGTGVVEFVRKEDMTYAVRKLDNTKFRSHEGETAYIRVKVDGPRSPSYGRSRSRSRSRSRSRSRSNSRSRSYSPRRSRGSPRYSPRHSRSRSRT

B1: GST-N (CLK1 residues 1-160) (domain or fragment, mouse, UniProt P22518 1-160, looked up)
chain: MRHSKRTYCPDWDERDWDYGTWRSSSSHKRKKRSHSSAREQKRCRYDHSKTTDSYYLESRSINEKAYHSRRYVDEYRNDYMGYEPGHPYGEPGSRYQMHSSKSSGRSGRSSYKSKHRSRHHTSQHHSHGKSHRRKRSRSVEDDEEGHLICQSGDVLSARY
Consider B1, for which the binding result in assay [1] was “binds”.

B2: His-N (CLK1 residues 1-160) (domain or fragment, mouse, UniProt P22518 1-160, looked up)
chain: MRHSKRTYCPDWDERDWDYGTWRSSSSHKRKKRSHSSAREQKRCRYDHSKTTDSYYLESRSINEKAYHSRRYVDEYRNDYMGYEPGHPYGEPGSRYQMHSSKSSGRSGRSSYKSKHRSRHHTSQHHSHGKSHRRKRSRSVEDDEEGHLICQSGDVLSARY
B2: the binding result in assay [2] is given as “binds”.
